Measured values: US20250020634A1

Biological target: NaV1.5-V5 (cardiac voltage-gated sodium channel alpha subunit, SCN5A)
Test: cell-based or functional assay

rat β1-V5-6×HIS (sodium channel beta-1 subunit, SCN1B) (from UniProt Q00954 19-218)
GV ΔV1/2 (mV), whole-cell patch clamp, BeHAPe cells, NaV1.5 + β1: 6.7 mV | GV ΔV1/2 (mV), whole-cell patch clamp, eHAP cells, NaV1.5 + β1: 0.2 mV | SSI ΔV1/2 (mV), whole-cell patch clamp, BeHAPe cells, NaV1.5 + β1: 8.8 mV | SSI ΔV1/2 (mV), whole-cell patch clamp, eHAP cells, NaV1.5 + β1: 3.2 mV | shift of GV V1/2 (fit to mean values, FIG. 5A), BeHAPe cells: 7.5 mV | shift of SSI V1/2 (fit to mean values, FIG. 5A), BeHAPe cells: 7.5 mV | Δτ inactivation at V1/2 (ms), whole-cell patch clamp, BeHAPe cells, NaV1.5 + β1: -1.7 ms | Δτ inactivation at V1/2 (ms), whole-cell patch clamp, eHAP cells, NaV1.5 + β1: -0.3 ms

rat β2-HA (sodium channel beta-2 subunit, SCN2B) (from UniProt P54900 30-215)
GV ΔV1/2 (mV), whole-cell patch clamp, BeHAPe cells, NaV1.5 + β2: -2.5 mV | SSI ΔV1/2 (mV), whole-cell patch clamp, BeHAPe cells, NaV1.5 + β2: -9.9 mV | shift of SSI V1/2 (fit to mean values, FIG. 5B), BeHAPe cells: -5.9 mV | Δτ inactivation at V1/2 (ms), whole-cell patch clamp, BeHAPe cells, NaV1.5 + β2: -0.5 ms

β1 & β2 (rat β1-V5-6×HIS and rat β2-HA simultaneously co-expressed) (from UniProt Q00954 19-157; P54900 30-157)
GV ΔV1/2 (mV), whole-cell patch clamp, BeHAPe cells, NaV1.5 + β1 & β2: 7.9 mV | SSI ΔV1/2 (mV), whole-cell patch clamp, BeHAPe cells, NaV1.5 + β1 & β2: 9.1 mV | shift of GV V1/2 (fit to mean values, FIG. 5E), BeHAPe cells: 9.3 mV | shift of SSI V1/2 (fit to mean values, FIG. 5E), BeHAPe cells: 13.4 mV | Δτ inactivation at V1/2 (ms), whole-cell patch clamp, BeHAPe cells, NaV1.5 + β1 & β2: 0 ms

B1: Myelin protein zero (MPZ) (protein, UniProt P25189 1-248, looked up, species assumed)
chain: MAPGAPSSSPSPILAVLLFSSLVLSPAQAIVVYTDREVHGAVGSRVTLHCSFWSSEWVSDDISFTWRYQPEGGRDAISIFHYAKGQPYIDEVGTFKERIQWVGDPRWKDGSIVIHNLDYSDNGTFTCDVKNPPDIVGKTSQVTLYVFEKVPTRYGVVLGAVIGGVLGVVLLLLLLFYVVRYCWLRRQAALQRRLSAMEKGKLHKPGKDASKRGRQTPVLYAMLDHSRSTKAVSEKKAKGLGESRKDKK
modifications: full-length
GV ΔV1/2 (mV), whole-cell patch clamp, BeHAPe cells, NaV1.5 + MPZ: 8.7 mV | SSI ΔV1/2 (mV), whole-cell patch clamp, BeHAPe cells, NaV1.5 + MPZ: 6.3 mV | shift of GV V1/2 (fit to mean values, FIG. 5F), BeHAPe cells: 7.4 mV | shift of SSI V1/2 (fit to mean values, FIG. 5F), BeHAPe cells: 6.9 mV | Δτ inactivation at V1/2 (ms), whole-cell patch clamp, BeHAPe cells, NaV1.5 + MPZ: 0.2 ms

B2: human β3 (sodium channel beta-3 subunit, SCN3B) (protein, UniProt Q9NY72 23-215, looked up)
chain: FPVCVEVPSETEAVQGNPMKLRCISCMKREEVEATTVVEWFYRPEGGKDFLIYEYRNGHQEVESPFQGRLQWNGSKDLQDVSITVLNVTLNDSGLYTCNVSREFEFEAHRPFVKTTRLIPLRVTEEAGEDFTSVVSEIMMYILLVFLTLWLLIEMIYCYRKVSKAEEAAQENASDYLAIPSENKENSAVPVEE
GV ΔV1/2 (mV), whole-cell patch clamp, BeHAPe cells, NaV1.5 + β3: 8.8 mV | SSI ΔV1/2 (mV), whole-cell patch clamp, BeHAPe cells, NaV1.5 + β3: 9.1 mV | shift of GV V1/2 (fit to mean values, FIG. 5C), BeHAPe cells: 7.4 mV | shift of SSI V1/2 (fit to mean values, FIG. 5C), BeHAPe cells: 9.4 mV | Δτ inactivation at V1/2 (ms), whole-cell patch clamp, BeHAPe cells, NaV1.5 + β3: 0.4 ms

B3: human β4 (sodium channel beta-4 subunit, SCN4B) (protein, UniProt Q8IWT1 31-228, looked up)
chain: LEVSVGKATDIYAVNGTEILLPCTFSSCFGFEDLHFRWTYNSSDAFKILIEGTVKNEKSDPKVTLKDDDRITLVGSTKEKMNNISIVLRDLEFSDTGKYTCHVKNPKENNLQHHATIFLQVVDRLEEVDNTVTLIILAVVGGVIGLLILILLIKKLIIFILKKTREKKKECLVSSSGNDNTENGLPGSKAEEKPPSKV
GV ΔV1/2 (mV), whole-cell patch clamp, BeHAPe cells, NaV1.5 + β4: 5.2 mV | SSI ΔV1/2 (mV), whole-cell patch clamp, BeHAPe cells, NaV1.5 + β4: 2.4 mV | shift of GV V1/2 (fit to mean values, FIG. 5D), BeHAPe cells: 6.1 mV | Δτ inactivation at V1/2 (ms), whole-cell patch clamp, BeHAPe cells, NaV1.5 + β4: 0.5 ms
